Series [1] has as its system rat β-cell line RIN-m5F. The series is described as follows: In vitro insulin secretion, static incubation of RIN-m5F cells. As to conditions: for EC50: read-out: In vitro insulin secretion in rat β-cell line RIN-m5F, EC50, 2 mM glucose, 30 min incubation, rat insulin ELISA, mean ± SEM of three experiments. The format is cell-based.
Series [2] is described as follows: Pharmacokinetics after subcutaneous injection in rats. The format is in vivo, Sprague-Dawley rats. As to conditions: 1 mg/kg s.c.; for Cmax / tmax: plasma ELISA; for tmax: non-compartmental.

No end group written: not given here. mPEG 20 kDa = linear 20 kDa mPEG attached to the Gln side chain; mPEG 5 kDa = linear 5 kDa mPEG attached to the Gln side chain

Consider “GLP-1-(7-36)-(Q23N–A30Q)-amide-Q^30-PEG 20 kDa (HAEGTFTSDVSSYLEGNAAKEFIQ(mPEG 20 kDa)WLVKGR-NH2; UniProt P01275 98-127, looked up, variant Q23N A30Q)”, for which, in series [1] (1/(EC50 analog/EC50 GLP-1(7-36)-amide)), the “In vitro insulin secretion, Relative potency” value stood at 0.017. The EC50 in series [1] was determined as 35 ± 3 nM.
“GLP-1-(7-36)-(T11Q–Q23N)-amide-Q^11-PEG 5 kDa (HAEGQ(mPEG 5 kDa)FTSDVSSYLEGNAAKEFIAWLVKGR-NH2; UniProt P01275 98-127, looked up, variant T11Q Q23N)”: the EC50 in series [1] was determined as 106.3 ± 0.5 nM.
In turn, “GLP-1-(7-36)-amide-Q^23-PEG 5 kDa: GLP-1(7-36)-amide monopegylated at glutamine 23 with linear 5 kDa mPEG-NH2” showed a t1/2 in series [2] (elimination phase of log transformed curve, four animals) of 1.7 h. In series [2] (four animals), the Cmax came to 160.4 ng/mL and the tmax came out at 3 h.
“GLP-1-(7-36)-amide-Q^23-PEG 20 kDa: GLP-1(7-36)-amide monopegylated at glutamine 23 with linear 20 kDa mPEG-NH2”: in series [1], the EC50 came out at 34.4 ± 0.8 nM. The “AUC (AUC96 h)” value in series [2] (0→96 h, linear trapezoidal rule, four animals) was 16,799.8 ng/ml×h. In addition, the “plasma concentration after 96 h” value in series [2] (96 h) is “around 5 ng/ml”. The same substance showed a Cmax in series [2] (four animals, 1 mg/kg) of 640 ng/mL. The substance also registered a tmax in series [2] (four animals) of 9 h.
With “GLP-1-(7-36)-amide-Q^23-PEG 50 kDa: GLP-1(7-36)-amide monopegylated at glutamine 23 with branched 50 kDa mPEG-NH2”, the concentration giving a half-maximal response (EC50) in series [1] came out at 1870 ± 1 nM.

The values are drawn from PMC4167179 (Results in Pharma Sciences, 2012).
